Laboratory results: article PMC2270275, “Thermal dependency of RAG1 self-association properties” (BMC Biochemistry, 2008)

Target: the molecule itself
Experiment: SEC-MALS; MALLS-SEC of purified GST-core RAG2 (0.01-0.03 mg), kept at 4°C before SEC; Superdex 200; 25 mM Tris pH 8.0, 150 mM KCl, 2 mM dithiothreitol; 40-200 nM in Peak 2

B1: GST-core RAG2 (domain or fragment, UniProt P21784 1-387, looked up)
chain: MSLQMVTVGHNIALIQPGFSLMNFDGQVFFFGQKGWPKRSCPTGVFHFDIKQNHLKLKPAIFSKDSCYLPPLRYPATCSYKGSIDSDKHQYIIHGGKTPNNELSDKIYIMSVACKNNKKVTFRCTEKDLVGDVPEPRYGHSIDVVYSRGKSMGVLFGGRSYMPSTQRTTEKWNSVADCLPHVFLIDFEFGCATSYILPELQDGLSFHVSIARNDTVYILGGHSLASNIRPANLYRIRVDLPLGTPAVNCTVLPGGISVSSAILTQTNNDEFVIVGGYQLENQKRMVCSLVSLGDNTIEISEMETPDWTSDIKHSKIWFGSNMGNGTIFLGIPGDNKQAMSEAFYFYTLRCSEEDLSEDQKIVSNSQTSTEDPGDSTPFEDSEEFCFS
notes: RAG2 core region; core RAG2 portion printed as 42.6 kDa; Predicted monomer mass 68.9 kDa; The authors put the dimeric state down to the GST moiety, which is known to dimerize; also called core RAG2 fused to glutathione S-transferase; GST-RAG2
  stoichiometry N: 2
